# Experiment: soluble on expression in E. coli; label from the status in PepcDB or PDB records
row,Sequence,soluble on expression in E. coli
1,MLRSVPFDLVTRLMTTHFVSRQIFIGSGRVGIGEHSENAGYQLSQRADYFHMKVGLQTTFDRPIINTRDESHSTDEYRRLHVIVGDANRMDVPQALKLGTTSMLLWLLEHADMAEIDLNEALGPLTLADPVEAMHTVSHDLTLAAPLPLETGGTTTAWQMQVTLRGLVYAAAATVYGTDTSGEPAWPDRSTRNIMAMWGQALADVATVRHADDDGRLTMREQASRLEWLLKWQLLEKLRRKTGSDWTDRRLAAVDLKWAALDPADSIFTRLAGQTERLVTDKQLAEAVGQAPADTRAWLRAEIVRRFPEQVIAASWSHLTVRGESSGDENVENSMVSLDMSNPLKFTESLCSEAFERVHTASGIVESLR,not soluble
2,MLSARTMKEVVYWSPKKVADWLLENAMPEYCEPLEHFTGQDLINLTQEDFKKPPLYRVSSDNGQRLLDMIETLKMEHHMEAHKN,soluble
3,MLSKISESLANLSGAERKVAECALAEPKWFVHAAVAEIAERASVSQPTVIRFCRSLGYKGLPEFKLALSASIGHEGMPYVHEELNADDDMASVVEKVLGNAAASLLGERRFLKESELENAIATLMHARRVEFYGVGNSGIVAQDAQHKFFRFGMSTVAYVDTHTQLMAASVLSDQDVLVAISNTGSSIELLDAVSIAKENGASVIALTRNDSPLAQLADCVLSVATQENAELYTPMVSRLLQLAVIDILAIGLALRLGDAASLQLQKSKKSIHNKHIDYDKD,soluble
4,MLSSQAYDIAIVGGGMVGLATAIGLAQADLNVVVIDAGHTEAVSGEPRLRVSAINKASQRLLEHLGAWHYVDASRATPYQKMAVWDKDGFGKIAFDASSISEPSLGAIIENDAISYALAKRASEFDNITHIENQRLERIAFGEREAWLTLANSADAEIESVSAALVIAADGANSWVREQCKIPLTFWDYGHHAIVATIRSEMPHLATARQVFLQDGPLAFLPLYEDNLCSIVWSVPPERATELLAMDKVQFERNLTAAFDGRLGICKLESERQAFPLRMRYARHFARHRLVLAGDAAHTIHPLAGQGVNLGFLDAASIIEVISELQQAGKDIGDYAELRALERWRKADAMEMIAAMEGFKRLFEGSNPVKKAIRDLGLNLVDNVAGLKTVFMQQAMGNKSSLPKLCRLEHHHHHH,soluble
5,MLTRGFTSIGKIASRGLSSTFYQDAFQLSDQLTEDERSLMLSAREYCQERLLPRVTEAYRTEKFDPSLIPEMGSMGLLGAPYQGYGCAGTSTVGYGLIAREVERVDSGYRSTMSVQTSLVIGPIYNYGSEDQKQKYIPDLASGKKIGCFGLTEPNHGSNPGGMETKATWDETTKTYKLNGSKTWISNSPVSDVMVVWARSARHNNKIKGFILERGMKGLTTPKIEGKLSLRASITGQIAMDDVPVPEENLLPNAEGLQGPFGCLNNARLGIAWGALGAAEECFHLARQYTLDRQQFGRPLAQNQLMQLKMADMLTEISLGLQGCLRVSRLKDEGKVQSEQISIIKRNSCGKALEVARKARDMLGGNGIVDEYHIMRHMVNLETVNTYEGTHDVHALILGRAITGLNGFC,not soluble
6,MLVDGKLVCVTGAGGYIASWIVKLLLERGYTVRGTVRNPTDPKNNHLRELQGAKERLTLHSADLLDYEALCATIDGCDGVFHTASPMTDDPETMLEPAVNGAKFVIDAAAKAKVKRVVFTSSIGAVYMNPNRDTQAIVDENCWSDLDFCKNTKNWYCYGKMLAEQSAWETAKAKGVDLVVLNPVLVLGPPLQSAINASLVHILKYLTGSAKTYANLTQVYVDVRDVALGHVLVYEAPSASGRYILAETALHRGEVVEILAKFFPEYPLPTKCSDEKNPRAKPYKFTTQKIKDLGLEFKPIKQSLYESVKSLQEKGHLPLPQDSNQNEVIIES,soluble
7,MLVEGSELQSGAQQPRTEAPQHGELQYLRQVEHIMRCGFKKEDRTGTGTLSVFGMQARYSLRDEFPLLTTKRVFWKGVLEELLWFIKGSTNAKELSSKGVRIWDANGSRDFLDSLGFSARQEGDLGPVYGFQWRHFGADYKDMDSDYSGQGVDQLQKVIDTIKTNPDDRRIIMCAWNPKDLPLMALPPCHALCQFYVVNGELSCQLYQRSGDMGLGVPFNIASYALLTYMIAHITGLQPGDFVHTLGDAHIYLNHIEPLKIQLQREPRPFPKLRILRKVETIDDFKVEDFQIEGYNPHPTIKMEMAV,soluble
8,MLVSRNLAKTISNSKNAKNIHTSCRKFAPVPMTYASYSSPELDRNSPLVIVHGLFGQKQNWNSVGKALHKKLEAPVYAVDVRNHGSSPHTETMSYTEMAEDLVLFIDKVKEETKKTRVNLLGHSMGGKIVMRLAIDSKWSDRIEKLIVEDVSPKGYSRRHLEFRELIKTMRNVDLCRTRKEILKDLESAIPDLAMRQFILTNLQPSSENEGQMEWKININTIDSHVDEILGYTLPVGSFRGPTLFLHGANSGYVPDDHKPDIKCLFPQVQFDAIPDSGHWVHAEKPQLFINSVYKFLKP,not soluble
9,MLWQKPTAPEQAPAPARPYQGVRVKEPVKELLRRKRGHASSGAA,soluble
10,MLYAATRATLKKEFGGGHIKDEVFGTVKEDVSLHGYKKYLLSQSSPAPLTAAEEELRQIKINEVQTDVGVDTKHQTLQGVAFPISREAFQALEKLNNRQLNYVQLEIDIKNEIIILANTTNTELKDLPKRIPKDSARYHFFLYKHSHEGDYLESIVFIYSMPGYTCSIRERMLYSSCKSRLLEIVERQLQMDVIRKIEIDNGDELTADFLYEEVHPKQHAHKQSFAKPKGPAGKRGIRRLIRGPAETEATTD,soluble
11,MLYDKSLEKDNCGFGLIAHIEGEPSHKVVRTAIHALARMQHRGAILADGKTGDGCGLLLQKPDRFFRIVAEERGWRLAKNYAVGMIFLNKDPELAAASRHIVEEELQQETLSIVGWRDVPTNEGVLGEIALSSLPRIEQIFVNAPAGWRPRDMERRLFIARRRIEKRLQDDKDFYVCSLSNLVNIYKGLCMPADLPRFYLDLADLRLESAICLFHQRFSTNTVPRWPLAQPFRYLAHNGEINTITGNRQWARARTYKFQTPLIPDLQSAAPFVNETGSDSSSLDNMLELLLAGGMDIIRAMRLLVPPAWQNNPDMDQDLRAFFDFNSMHMEPWDGPAGIVMSDGRFAACNLDRNGLRPARYVITKDKLITCASEVGIWDYQPDEVVEKGRVGPGELMVIDTRGGRILHSAETDDDLKSRHPYKEWMEKNVRRLVPFEELPDEEVGSRELDDDLLASYQKQFNYSAEELDSVIRVLGENGQEAVGSMGDDTPFAVLSSQPRIIYDYFRQQFAQVTNPPIDPLREAHVMSLATSIGREMNVFCEAEGQAHRLSFKSPILLYSDFKQLTTMKEEHYRADRLDITFDVTETTLNATVKALCDKAEQMVRNGTVLLVLSDRNIGKNRLPVPAPMAVGAVQTRLVEQSLRCDANIIVETGSARDPHHFAVLLGFGATAIYPYLAYETLGRLIDTQAIAKNYRTVMQNYRNGINKGLYKIMSKMGISTIASYRCSKLFEAVGLHDDVVNLCFQGVVSRIGGASFDDFQQDLLNLSKRAWLARKPISPGGLLKYVHGGEYHAYNPDVVRTLQQAVQSGEYSDYQEYAKLVNERPASTLRDLLAIHPDGEAVTIDEVEPASELFKRFDTAAMSIGALSPEAHEALAEAMNSLGGNSNSGEGGEDPARYGTNKVSRIKQVASGRFGVTPAYLVNADVIQIKVAQGAKPGEGGQLPGDKVTPYIAKLRYSVPGVTLISPPPHHDIYSIEDLAQLIFDLKQVNPKAMISVKLVSEPGVGTIATGVAKAYADLITIAGYDGGTGASPLSSVKYAGCPWELGLVETQQALVANGLRHKIRLQVDGGLKTGVDIIKAAILGAESFGFGTGPMVALGCKYLRICHLNNCATGVATQDDKLRKNHYHGLPFKVTNYFEFIAREVRELMASLGVTRLVDLIGRTDLLKELEGFTAKQQKLALSRLLETAEPHPGKALYCTENNPPFDNGVLNAQLLQQAKPFVDARQSKTFWFDIRNTDRSVGASLSGYIAQTHGDQGLASDPIKAHFSGTAGQSFGVWNAGGVELYLTGDANDYVGKGMAGGLIAIRPPVGSAFLSHKASIIGNTCLYGATGGRLYAAGRAGERFGVRNSGAITVVEGIGDNGCEYMTGGIVCVLGKTGVNFGAGMTGGFAYVLDEDGEFRKRVNPELVEVLDVDSLAIHEEHLRGLITEHVQHTGSQRGEEILSRWSSFSTQFALVKPKSSDVKALLGHRSRSAAELRVQAQ,not soluble
12,MLYFVLCDLKFNQFSRYPMSYQKIELSISLSLDSPKLDESDFILLSVKYLEKSLGKKKEFSGFFEDIEKLYFKQNYKEAIEKILDFCKKNESLLSEQVVQRLAEVAPRLKSNPKDNESRRLYETLYADHLESVIKQESDLSVFNELRDSYNAVKPEYAVTHETEIKTLDEAKQFILSFVMLNDNVELPLKAQSERYPKKDRSREELGNTPSANPGIMKPNSPNFTDNLVPVRDVPKIAINEKVAGGYSKTKPTTPFVASLSGTTYSLMVVLTDYIEKHKTDKDIEKKVNQIINLWISSYIKEGYHSYSEVVDVLTEPFLQSIFDKANIKLNYGVLDDTHAEFRKAQDYVFGLTIQSAMHHELQERFKNKEKLQEEVKNFESGLNKLNQNVENTGRHREALNKLNEVFQDWSAGKKSYDAFKSESNQLIHDIESEEQKSNRGLGSMLKNLGNYLLYLITLRFLKEDYPKPSSPVTMLVTELRGTLEQIDHFHKTSLSLKKATQPDPKNTSSSDETADVRKSAVDTDKPSKNQDSEVKKTLDSEQLEEVQRQDDKSARLQ,not soluble
13,MLYNLAIVIYDLLVHFAAPFSRKPRKMMKGHWVVYELLRQQVEKGEQYIWFHAASLGEFEQGRPLIEMIREKYPDYKILLTFFSPSGYEVRKHYRGADIVCYLPFDKPRNVKKFLDIANPCMAFFIKYEFWKNYLDELHKRRIPVYSVSSIFRRDQIFFKWYGGTYRNVLKDFDHLFVQNEASKRYLSKIGICRVTVVGDTRFDRVLQIREEAKDLPLVKMFKGDNAFTFVAGSSWGPDEDLFLEYFNTHPEMKLIIAPHVIDENHLVEIISKLKRPYVRYTRADEKNVLKVDCLIIDCFGLLSSIYRYGEVAYIGGGFGVGIHNTLEAAVYGIPVIFGPKYQKFMEAIRLLEAKGAYSIKDYHELKTLLDRFQADDVFMRETGANAGYYVTSNAGATEKIMHMINFLEHHHHHH,not soluble
14,MMAARLLGTSSRIFKLNKHLHTSKVAFMPVVQFKLSDIGEGIAEVQVKEWYVKEGDTISQFDKVCEVQSDKAAVTISCRYDGIVKKLYHEVDGMARVGQALIDVEIEGNVEEPEQPKKEAASSSPEAPKSSAPKAPESAHSEGKVLATPAVRRIAIENKIKLAEVRGTGKDGRVLKEDVLKFLGQVPADHTSGSTNIRTTHQAPQPSSKSYEPLKEDVAVPIRGYTRAMVKTMTEALKIPHFGYNDEINVDSLVKYRAELKEFAKERHIKLSYMPFFIKAASLALLEYPSLNSTTDEKMENVIHKASHNICLAMDTPGGLVVPNIKNCEQRSIFEIAQELNRLLEAGKKQQIKREDLIDGTFSLSNIGNIGGTYASPVVFPPQVAIGAIGKIEKLPRFDKHDNVIPVNIMKVSWCADHRVVDGATMARFSNRWKFYLEHPSAMLAQLK,not soluble
15,MMEERANLMHMMKLSIKVLLQSALSLGRSLDADHAPLQQFFVVMEHCLKHGLKVKKSFIGQNKSFFGPLELVEKLCPEASDIATSVRNLPELKTAVGRGRAWLYLALMQKKLADYLKVLIDNKHLLSEFYEPEALMMEEEGMVIVGLLVGLNVLDANLCLKGEDLDSQVGVIDFSLYLKDVQDLDGGKEHERITDVLDQKNYVEELNRHLSCTVGDLQTKIDGLEKTNSKLQEELSAATDRICSLQEEQQQLREQNELIRERSEKSVEITKQDTKVELETYKQTRQGLDEMYSDVWKQLKEEKKVRLELEKELELQIGMKTEMEIAMKLLEKDTHEKQDTLVALRQQLEEVKAINLQMFHKAQNAESSLQQKNEAITSFEGKTNQVMSSMKQMEERLQHSERARQGAEERSHKLQQELGGRIGALQLQLSQLHEQCSSLEKELKSEKEQRQALQRELQHEKDTSSLLRMELQQVEGLKKELRELQDEKAELQKICEEQEQALQEMGLHLSQSKLKMEDIKEVNQALKGHAWLKDDEATHCRQCEKEFSISRRKHHCRNCGHIFCNTCSSNELALPSYPKPVRVCDSCHTLLLQRCSSTAS,soluble

# — the DeepSol protein solubility set
